Measurements published in PMC5097169, “Acetylation of histone H4 lysine 5 and 12 is required for CENP-A deposition into centromeres” (Nature Communications, 2016).

Target: T1, Flag RbAp46 (Xenopus, recombinant) (Xenopus, UniProt Q8AVH1 1-425)
T1 construct: RbAp46, Xenopus (xRbAp46); also called xRbAp46
Assay: pull-down; GST-histone tails coupled to NHS Sepharose (20 μl resin) with 0.7 μg Hat1, RbAp46 or RbAp48, or RbAp46 with Hat1, in 150 μl 20 mM K-HEPES pH 7.4, 50 mM KCl, 0.1% Tween-20, 5 mM DTT; 2 h at 4 °C; washes with 300 mM KCl; coomassie-stained gel
Details: both partners purified

T1 sequence (Q8AVH1 whole entry): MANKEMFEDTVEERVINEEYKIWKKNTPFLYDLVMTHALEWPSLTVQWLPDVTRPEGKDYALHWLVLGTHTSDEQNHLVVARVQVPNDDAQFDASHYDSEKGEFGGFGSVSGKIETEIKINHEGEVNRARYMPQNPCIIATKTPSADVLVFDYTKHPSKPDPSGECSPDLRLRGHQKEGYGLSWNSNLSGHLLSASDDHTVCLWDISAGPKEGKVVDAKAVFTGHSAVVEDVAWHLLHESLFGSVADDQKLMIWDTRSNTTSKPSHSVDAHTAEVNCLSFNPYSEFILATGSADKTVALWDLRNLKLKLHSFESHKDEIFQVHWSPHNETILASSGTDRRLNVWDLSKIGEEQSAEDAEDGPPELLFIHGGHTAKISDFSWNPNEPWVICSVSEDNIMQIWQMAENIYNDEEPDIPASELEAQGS

B1: GST fusion to Xenopus laevis CENP-A amino terminus (amino acids 1–50) (domain or fragment, UniProt Q569M3 1-50, looked up)
chain: MRPGSTPPSRRKSRPPRRVSPPLPTTSRTSPRRPHAQQQRRASRASPKKR
notes: CENP-A, Xenopus laevis, amino terminus, amino acids 1–50, in pGEX-6P-1; also called GST-CENP-A N-terminal tail; xCENP-A N-terminus
binding result: binds
